In this series the test system is Saccharomyces cerevisiae. Briefly: transcriptional activation domain activity (GFP:mCherry ratio, weighted mean of sorted bins, harmonized to initial dataset scale) (arbitrary fluorescence ratio units); higher = stronger transcriptional activation. The settings on record: beta-estradiol 1 µM; induction time 4 h. The essentials:
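Each value is an activation activity: the read-weighted mean of bin median fluorescence, averaged across barcodes, then mapped linearly to the initial dataset scale. The tiles, fused to an estradiol-inducible synthetic transcription factor, sat at the yeast URA3 locus in GFP-reporter diploids. Cells spent 4 hours at 30 °C in SC with 1 uM beta-estradiol before sorting into 8 GFP:mCherry bins, and tiles below 50 reads were removed.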
Regarding “RKKSALEEEERKEKENDELEKKGKRKEEKEEKRRRGKGEKKGKEIRKEKEEKE”, the “transcriptional activation domain activity” value worked out at 25300.

Regarding “ASENSESSDSSDDEADVPSRKGNAASAVNTMADDDDDEEGGGGATTAAAARTK”, the “transcriptional activation domain activity” value came to 16900.

For “RFISTRSFLFIFLFDSFFFFSFFFLSLFFFFISFFSFSSFFFFIFTLYLSRAL”, the “transcriptional activation domain activity” value came out at 28300.

Regarding “LSHSFFSSCCCLLRTLGRFLLFIIFFLSFYFLPFFFSFQTYLLLYLLLIVYFH”, the “transcriptional activation domain activity” value turned out to be 29700.

On to “EPPPPPPEPEPQPPPKAEPPPEPEPEPVPKAEAPPPPPREEPPPPKKAPPPPK”, for which the “transcriptional activation domain activity” value came to 44000.

For “SLLVLCECLLMTIGVVFTTPHVDFIYRCVNTVTPTTMVYFVVCVLFNHLVILL”, the “transcriptional activation domain activity” value amounted to 73100.

On to “EPAETPAETPAPVEPVVEEKKEETPAPVKETPAPTPNPAAAPAPQQQQPAAAK”, for which the “transcriptional activation domain activity” value was 26400.

As for “LWQYMEFRIMIYLFLALCFIPISIFVIFCSCLSSILFMISAGIWIFFGTIAFL”, the “transcriptional activation domain activity” value came to 51200.

As for “LIRIKDFTPNEVAAVVTYYSCRTNGMIPLTGRKWLGRIICRCLPLFDMLLFYR”, the “transcriptional activation domain activity” value amounted to 37500.

Turning to “NSLRNLFDLVGCSSLCSSSQKRGFVGRLVVDFASCAWPPVIVILLIWISLFWW”, the “transcriptional activation domain activity” value turned out to be 39200.

For the sequence “DYSIAQFRFLLKLLLVHGRWNYMRACKYTLGTFWKEMLFYLTQALYQRWNGYT”, the “transcriptional activation domain activity” value is 64700.

For “LGFLYDLIPFFFCCLPFLPFLAPPLKKHLALFQFHPLLHLPLLLPFFFLYFRP”, the “transcriptional activation domain activity” value is 50200.

Take “MEVRQRKPGSGRPKGSKNKAKPPGTEPRPRKPGSGRPKGSKNKTTLAAAAAAA”: the “transcriptional activation domain activity” value amounted to 30900.

“MWVTQHCLLATQWALLCVPPFRGLLLLLLFLYVFKFLFGLRIFILYLVSMLVM”: the “transcriptional activation domain activity” value is 46100.

Regarding “MTLTFWFFLPLLDILSGLKFEFLPMLVFYFYFFPFASFCRFEALDIWTWILII”, the “transcriptional activation domain activity” value is 48100.

For the sequence “LPRFFFLSFYTFLLIFPLLHLFHHLSLLFSPPILLYSSLILFFSHFLPLLLFL”, the “transcriptional activation domain activity” value was determined as 38900.

Consider “SFSVILFYFIFLISPGQKAAFVFPWSFFFFLFFFFFFFTFFYFRLFSANFVCV”, for which the “transcriptional activation domain activity” value is 45000.

For the sequence “MSAPPEEVASTQSAQPTTEPALIGEPVKRGRGRPKGSKNKAKPSTAATATGEA”, the “transcriptional activation domain activity” value came out at 34800.

Take “RGVEKLKVEVGCFFWILGEGMIADERLKKFMKDMAHARHVVSSPDVCPNIITY”: the “transcriptional activation domain activity” value amounted to 40800.

For the sequence “MLIVSRAGFLAFLLCYLHFCSVVVHVFSLPIGQPVTGYGNGNSVNPRSPIVPS”, the “transcriptional activation domain activity” value is 52100.

Consider “RVLETPAIFPSFLNTALFPMPFIVGLILFFFFALFPFPLPFLSPSFFPSILQY”, for which the “transcriptional activation domain activity” value came out at 43200.

On to “PIDPETGRPKKGRPRKSVDAASAVGTSSTGEPQAKRARGRPKKNAGAVAATAV”, for which the “transcriptional activation domain activity” value stood at 51100.

As to “YIFMISLSSYSLSLINTLVSFGLLLLYTPSYRLWGWNPPFRAPKIIIFLFFLS”, the “transcriptional activation domain activity” value is 48300.

“DVYNEGHICNHSDDEGRYAYKYQPTMILYAIRALLRSLSVLIGAEEELGNAVA”: the “transcriptional activation domain activity” value was 36400.

On to “DKRLENAQTLIPDGMKVRPMEDCITEAPTLIMARFNIVLLYLKTRVVLHRNYL”, for which the “transcriptional activation domain activity” value was 62400.

With “NRKTIGKQDPYCAARLGKEAKKTDTDRRGGQTPRWDQELRYTVHDSPDYYQLK”, the “transcriptional activation domain activity” value amounted to 33300.

With “MAVIWGLDLKDMQWSKFKGSYMFNNVYHLRKVKMIVYQIAMILCVVSESVGTA”, the “transcriptional activation domain activity” value was found to be 66800.

In the case of “SSSKSKPIPDAKKRKSSASKPKSASSADRDTKRSGSRPESGKKSSTSSRSSKS”, the “transcriptional activation domain activity” value was 22900.

“GAGAGGKVGGGAGAGAGAGAGAGHLGGGAEGGGKIGAGAGGKVGGEIGAGGKI”: the “transcriptional activation domain activity” value was determined as 25000.

With “VHEQLEVALRRWRISSIMEGTRVRDVLIRLPLAHSFASLSSKVNILLHEMLFE”, the “transcriptional activation domain activity” value stood at 45700.

As for “FYAMVHWYKIFQSGHSIVRIFLLLIEFLYNLISLVFSWFSLANFYLCYYFLYH”, the “transcriptional activation domain activity” value turned out to be 49600.

As to “LGGLSRERFFVYVFTSAFLWYFFPGYLFLALSWFSWVTWIWPDDPVVSQLFGY”, the “transcriptional activation domain activity” value was found to be 39500.

Take “MLLLLPLHMLLQRHTLPNFFTFFSIIIIFLFLFSFFFFLFFFFLLFFLLLPGG”: the “transcriptional activation domain activity” value is 76400.

With “NGPGTCVVLVLITYIRRMLGLRYSQVIYVESFARVKKLSLSGKLLKPFVDKFV”, the “transcriptional activation domain activity” value is 54600.

On to “MFCLRSWLPLLFIPTNASPIFIFLFFICTYFLNRPCVYCSFLLLILFASSCHW”, for which the “transcriptional activation domain activity” value stood at 48400.

Turning to “HAQGEGEYKAAQAEGYAEGTQDRFGGKKDAVIGALTGDRKQEASGTLIPRLKL”, the “transcriptional activation domain activity” value was 34400.

Turning to “MWLLFYARACLSLLWFTSARVLFFSSFLTFSFLIIWLLGSFDIFRILVLFSFF”, the “transcriptional activation domain activity” value is 87100.

Consider “GQRPFGQVLNFFSCFLFIAFSCCHGPSLVNLIVWAAFFAQSTLFLIYLLRCIC”, for which the “transcriptional activation domain activity” value stood at 43800.

In the case of “FFHVTIRVASQGCGIGFAILGFGNLGLFLAFLILGAEGYFSLVLCTFRFVISW”, the “transcriptional activation domain activity” value turned out to be 78100.

For “MFMTELLWGPGVRRLFLVFLFFISFPSLIPFFLSCLSFCTLLISLLCSFGTCA”, the “transcriptional activation domain activity” value was found to be 38500.

Consider “SFIHSLLYAFLSFFPHLFISYFLSSFYYLSTHLFLSFFPFLVILFTSCYQNLS”, for which the “transcriptional activation domain activity” value amounted to 57700.

On to “SEPEEEDSSSKKRKRKADDEGKKKAKKGKKAAGSDDEDEDANSVHISVTQAVS”, for which the “transcriptional activation domain activity” value amounted to 36600.

As to “FICLLLSTTLRRLRWCLIRYIRNNYMEVCVCLVTIGVVAFSRLSWTLWVGAYV”, the “transcriptional activation domain activity” value was 50000.

“CKVHAWLVGLGDVPPREMLQGLGRSLLVRSVVLSCHCLGRMSFVICIHAVHIM”: the “transcriptional activation domain activity” value is 42700.

Turning to “NNCVGYFNYCHFIRLIVYANITTIYIFVLLCCRAHQIIFIQSASLEVGFLCVN”, the “transcriptional activation domain activity” value came to 66500.

Consider “ILLMLATGQWRLLIDALVSMSDIEVQFFLRQLALCKLVNWKASIVNGYPSPVE”, for which the “transcriptional activation domain activity” value came out at 52400.

As to “MGQVGVFALHKVLYGIIPLFEIQTCSFYPLLVSLWHIFYLLVYIVMFMRLIIL”, the “transcriptional activation domain activity” value stood at 72300.

Regarding “MSFFLFFVSCLLLFFVFVLFLFFSFRSFLSSVPFPFRFCFLFLFALSLFFLLV”, the “transcriptional activation domain activity” value is 41400.

For “MLLNVFFFFPSSILGSFLYTDLFYFGFFSLIMLFPFKLPCIQPTFFFFTPSFI”, the “transcriptional activation domain activity” value was 44500.

Take “GPTIRHEMNLFHVYGRRNPHLRLMISLIYVWMRSWGVKEMSPRTLCLLLIRFF”: the “transcriptional activation domain activity” value is 48600.

Consider “MLIILLSSLVLWRLGSPCFFYTLFLFYISERSISQLPPPPTLLSILFFFTFIA”, for which the “transcriptional activation domain activity” value was 53100.

With “VAAFAVFCSIEARGSLYVFSVDAVKRVGRRIKHFWHGVWTVLRTAVLLCTCGR”, the “transcriptional activation domain activity” value came to 77400.

Turning to “GRRGSKAVPGEVSEAEANGDAPQTEATPAPESDDAAKPKKKKKSKAARKAKKA”, the “transcriptional activation domain activity” value is 36100.

As for “AKRGRASSNASSVQGSTGAASGSSRNKRGGAAEERAGSTSADLANKTADQRKR”, the “transcriptional activation domain activity” value turned out to be 22900.

Turning to “AASPEEVIAPKSKRQPRRNTQAVSADPASLTPPADTKPKRSRAPRKAKVTIAE”, the “transcriptional activation domain activity” value is 13300.

For “GASAFGSAAQLGQKSSPWGSATSAVPSTGGAVFGSSGFGNAAPSAAPAFGKPS”, the “transcriptional activation domain activity” value turned out to be 33200.

On to “DQDAVMEDAPEANAETESQNSRRRRSRGKGRKSGASMAENVKVEQQAEAGSEN”, for which the “transcriptional activation domain activity” value was found to be 29300.

Turning to “PFSFSNTDLTALFTHPEGPNCTNTNNGNVDVCNRASTDATDANIENLSFLNMA”, the “transcriptional activation domain activity” value was 116000.

Turning to “MIFMPSCCGFFISMFTTYGTLFSIRGILTYNPFFLCTFLFPFLFHGVPCLFLF”, the “transcriptional activation domain activity” value came to 49700.

In the case of “PPASTHTSVTSSPPVNDQWKDYALVLVRLMPMDKLSKPSFRYIIKSTYVRAVC”, the “transcriptional activation domain activity” value came out at 58000.

Take “EGSGEEAGGEGSGGEEDEEDEAGGGGDDADGRRGEDDGADEGTAGARAAAKAA”: the “transcriptional activation domain activity” value is 34900.

With “MVHIVVVLCIVFCLLLCFKRRAQQLSSYCHASLRYFNLPPNFHQYYEQRFILV”, the “transcriptional activation domain activity” value came out at 78400.

On to “VALPCSFRGLLRFACVTWLKHLFGLISRVLDFQAWWGVQLHCLFLLGLMLLPP”, for which the “transcriptional activation domain activity” value came out at 63500.

Turning to “FGVGMVPLGCQWACHLVALMVLFDVGWLCISRFILLDSMLLFFTFLTVFCMTK”, the “transcriptional activation domain activity” value came out at 57900.

Consider “TGYKKKKLGHPSEKVVERHASCEPGTRLYSQKLFGRYVLRLLFVVAYMFVKSF”, for which the “transcriptional activation domain activity” value was determined as 34800.

In the case of “SRSGGGNGKPAGSGKNGSSQLKEVASRSRRRGDSDDDDRKGGSTRSGGGSRKV”, the “transcriptional activation domain activity” value came out at 34000.

In the case of “LWGHVVMEFCCWDFVRRASGLDSILLLLVYIFSSLPYFFFVLFVCHIAILLLT”, the “transcriptional activation domain activity” value amounted to 34500.

In the case of “ENTRHRIFSIFRKSDLGLYALRGSQTLMNYSRVLGLLIRKWVITALRVCMWLG”, the “transcriptional activation domain activity” value came to 53000.

Regarding “ISTAYFSNECGLVDRLITLAFLALKSKTDMSMVAYHSYCAIIEASLHSRGIWN”, the “transcriptional activation domain activity” value came to 57300.

On to “MVSCYIPLLIGFLGLVGPVLSRFFFLFSLFSWLIGRLVLYLILFLSSLCHGLG”, for which the “transcriptional activation domain activity” value was determined as 30300.

Regarding “KGIAGLGPTKTIGLFVVLYIATAIFVFVYIVMQFLLVFGTLTERWPAGHLAFC”, the “transcriptional activation domain activity” value turned out to be 52200.

For “AKKESKADGEEKPKAARGKKRKVDEEAEEEEGAEKPASKKAKPVSKAKSAAGS”, the “transcriptional activation domain activity” value turned out to be 17000.

Take “AIMIMCLLLFENEFLNIVAISFTALVLNELIMVALEITTWHIYMILAEIVTLF”: the “transcriptional activation domain activity” value is 55800.

For “NKEKMAAFGSFVTEDQEKMEVSFNIFNEITIQDLNFLQFSSIPKLWENKTLEP”, the “transcriptional activation domain activity” value came to 79600.

Values taken from the supplement of paper PMC12636428.
